Among the data in patent US20140072613A1, “Compositions and Methods for Treating Cutaneous Scarring” (priority 2012, published 2014) are % activity, 100 µM values, retold here.

Some targets named below: CHK2(I157T)(h) (human) (UniProt O96017); CLK3(h) (human) (UniProt P49761); CSK(h) (human) (UniProt P41240); CaMKIIγ(h) (human) (UniProt Q13555); IRAK1(h) (human) (UniProt P51617); JAK3(h) (human) (UniProt P52333); MSK2(h) (human) (UniProt O75676); Met(M1268T)(h) (human) (UniProt P08581); Met(Y1248C)(h) (human) (UniProt P08581); NEK7(h) (human) (UniProt Q8TDX7); SRPK1(h) (human) (UniProt Q96SB4); WNK3(h) (human) (UniProt Q9BYP7).

What all share (assay): cell-based or functional assay
Experiment [1] has as its target IGF-1R(h), activated (human) (UniProt P08069).
The target in the next experiment is T1, IKKβ(h) (human) (UniProt O14920).
T1 sequence (looked up): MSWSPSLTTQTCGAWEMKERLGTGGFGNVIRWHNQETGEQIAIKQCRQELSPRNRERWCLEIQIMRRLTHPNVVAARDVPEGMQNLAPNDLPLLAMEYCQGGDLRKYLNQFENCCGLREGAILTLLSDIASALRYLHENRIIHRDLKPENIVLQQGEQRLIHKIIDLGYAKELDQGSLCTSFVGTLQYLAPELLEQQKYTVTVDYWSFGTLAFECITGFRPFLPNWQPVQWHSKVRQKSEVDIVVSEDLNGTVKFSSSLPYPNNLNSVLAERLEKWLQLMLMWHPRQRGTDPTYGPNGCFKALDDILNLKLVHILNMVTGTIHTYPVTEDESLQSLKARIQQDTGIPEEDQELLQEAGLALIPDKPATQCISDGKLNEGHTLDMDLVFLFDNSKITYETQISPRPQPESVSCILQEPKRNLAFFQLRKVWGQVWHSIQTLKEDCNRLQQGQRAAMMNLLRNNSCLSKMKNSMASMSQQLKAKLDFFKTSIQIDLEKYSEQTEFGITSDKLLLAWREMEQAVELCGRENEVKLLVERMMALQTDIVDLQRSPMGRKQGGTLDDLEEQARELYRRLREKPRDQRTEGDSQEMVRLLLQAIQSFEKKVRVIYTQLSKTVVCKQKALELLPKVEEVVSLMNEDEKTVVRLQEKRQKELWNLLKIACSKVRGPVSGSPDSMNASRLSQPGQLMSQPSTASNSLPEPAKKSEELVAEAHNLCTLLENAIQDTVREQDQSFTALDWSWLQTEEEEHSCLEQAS

For the next experiment, the target named is T2, NEK11(h) (human) (UniProt Q8NG66).
T2 sequence (looked up): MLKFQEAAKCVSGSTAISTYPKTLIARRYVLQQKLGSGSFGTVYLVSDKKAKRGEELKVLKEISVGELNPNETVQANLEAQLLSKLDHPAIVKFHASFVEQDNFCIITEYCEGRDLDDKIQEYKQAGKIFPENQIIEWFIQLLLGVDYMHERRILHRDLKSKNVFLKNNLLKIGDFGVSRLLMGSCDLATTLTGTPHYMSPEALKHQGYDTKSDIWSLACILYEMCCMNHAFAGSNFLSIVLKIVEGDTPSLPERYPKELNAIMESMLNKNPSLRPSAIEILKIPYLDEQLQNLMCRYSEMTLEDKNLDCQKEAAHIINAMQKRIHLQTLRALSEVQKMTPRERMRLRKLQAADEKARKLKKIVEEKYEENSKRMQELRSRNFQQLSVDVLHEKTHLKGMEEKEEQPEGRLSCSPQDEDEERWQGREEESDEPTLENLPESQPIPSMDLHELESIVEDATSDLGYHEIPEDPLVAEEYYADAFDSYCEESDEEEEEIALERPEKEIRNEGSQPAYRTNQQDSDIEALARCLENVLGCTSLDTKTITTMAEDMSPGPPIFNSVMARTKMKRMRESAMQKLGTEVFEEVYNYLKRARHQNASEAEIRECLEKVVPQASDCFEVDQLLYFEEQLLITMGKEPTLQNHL

The next experiment addresses T3, TAO2(h) (human) (UniProt Q9UL54).
T3 sequence (looked up): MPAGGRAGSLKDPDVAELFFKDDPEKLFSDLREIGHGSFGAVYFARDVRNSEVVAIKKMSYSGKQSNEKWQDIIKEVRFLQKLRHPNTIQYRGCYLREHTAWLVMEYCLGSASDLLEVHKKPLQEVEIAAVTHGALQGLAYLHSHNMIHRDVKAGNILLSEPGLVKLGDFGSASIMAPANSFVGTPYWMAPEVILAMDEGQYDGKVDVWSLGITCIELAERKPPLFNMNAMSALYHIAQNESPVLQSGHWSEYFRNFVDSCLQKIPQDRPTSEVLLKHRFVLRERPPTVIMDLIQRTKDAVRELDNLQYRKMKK

The target of a further experiment is T4, ULK2(h) (human) (UniProt Q8IYT8).
T4 sequence (looked up): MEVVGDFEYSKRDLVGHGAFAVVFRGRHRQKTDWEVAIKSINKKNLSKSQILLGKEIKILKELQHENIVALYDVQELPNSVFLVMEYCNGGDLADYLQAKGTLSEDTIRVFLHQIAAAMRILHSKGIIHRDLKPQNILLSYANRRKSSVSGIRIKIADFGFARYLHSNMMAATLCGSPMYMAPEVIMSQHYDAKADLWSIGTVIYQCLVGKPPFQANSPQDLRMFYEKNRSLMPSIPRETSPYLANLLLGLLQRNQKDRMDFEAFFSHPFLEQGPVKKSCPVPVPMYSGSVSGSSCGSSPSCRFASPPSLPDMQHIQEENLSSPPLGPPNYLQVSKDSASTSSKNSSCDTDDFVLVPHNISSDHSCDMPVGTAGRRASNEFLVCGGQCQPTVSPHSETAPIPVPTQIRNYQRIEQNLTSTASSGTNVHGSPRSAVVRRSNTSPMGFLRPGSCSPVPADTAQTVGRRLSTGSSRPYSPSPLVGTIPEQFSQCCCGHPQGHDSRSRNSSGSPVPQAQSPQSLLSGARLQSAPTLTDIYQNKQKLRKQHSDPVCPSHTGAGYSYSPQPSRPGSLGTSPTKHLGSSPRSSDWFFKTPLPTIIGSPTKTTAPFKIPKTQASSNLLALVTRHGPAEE

CaMKIIγ(h) (human), sequence (Q13555 whole entry): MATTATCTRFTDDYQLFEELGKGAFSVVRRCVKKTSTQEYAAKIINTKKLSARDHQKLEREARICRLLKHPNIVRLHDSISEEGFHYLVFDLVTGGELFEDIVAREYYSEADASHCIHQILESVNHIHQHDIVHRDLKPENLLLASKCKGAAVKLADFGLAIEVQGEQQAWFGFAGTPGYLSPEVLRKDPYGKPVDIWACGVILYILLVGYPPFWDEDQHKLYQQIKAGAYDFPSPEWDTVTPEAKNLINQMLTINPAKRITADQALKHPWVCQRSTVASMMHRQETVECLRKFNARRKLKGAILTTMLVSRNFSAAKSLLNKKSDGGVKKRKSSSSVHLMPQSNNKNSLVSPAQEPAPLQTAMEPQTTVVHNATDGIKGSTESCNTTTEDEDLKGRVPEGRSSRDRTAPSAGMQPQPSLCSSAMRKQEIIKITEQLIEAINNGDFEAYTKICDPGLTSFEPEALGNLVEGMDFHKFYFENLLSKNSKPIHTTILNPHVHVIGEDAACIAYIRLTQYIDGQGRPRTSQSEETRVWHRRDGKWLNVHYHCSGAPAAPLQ
CLK3(h) (human), sequence (P49761 whole entry): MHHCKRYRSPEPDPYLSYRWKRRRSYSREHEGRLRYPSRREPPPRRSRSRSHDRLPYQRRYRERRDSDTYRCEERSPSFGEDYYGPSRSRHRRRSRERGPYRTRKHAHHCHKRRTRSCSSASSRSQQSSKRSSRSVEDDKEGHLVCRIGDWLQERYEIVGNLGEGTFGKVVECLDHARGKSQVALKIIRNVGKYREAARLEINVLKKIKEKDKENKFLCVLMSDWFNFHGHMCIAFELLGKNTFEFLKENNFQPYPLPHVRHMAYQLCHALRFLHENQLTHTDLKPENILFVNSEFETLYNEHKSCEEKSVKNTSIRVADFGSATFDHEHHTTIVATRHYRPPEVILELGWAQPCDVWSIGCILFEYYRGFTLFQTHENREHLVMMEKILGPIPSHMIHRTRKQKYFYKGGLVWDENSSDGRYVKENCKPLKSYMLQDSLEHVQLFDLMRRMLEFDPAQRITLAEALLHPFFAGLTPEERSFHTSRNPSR
SRPK1(h) (human), sequence (Q96SB4 whole entry): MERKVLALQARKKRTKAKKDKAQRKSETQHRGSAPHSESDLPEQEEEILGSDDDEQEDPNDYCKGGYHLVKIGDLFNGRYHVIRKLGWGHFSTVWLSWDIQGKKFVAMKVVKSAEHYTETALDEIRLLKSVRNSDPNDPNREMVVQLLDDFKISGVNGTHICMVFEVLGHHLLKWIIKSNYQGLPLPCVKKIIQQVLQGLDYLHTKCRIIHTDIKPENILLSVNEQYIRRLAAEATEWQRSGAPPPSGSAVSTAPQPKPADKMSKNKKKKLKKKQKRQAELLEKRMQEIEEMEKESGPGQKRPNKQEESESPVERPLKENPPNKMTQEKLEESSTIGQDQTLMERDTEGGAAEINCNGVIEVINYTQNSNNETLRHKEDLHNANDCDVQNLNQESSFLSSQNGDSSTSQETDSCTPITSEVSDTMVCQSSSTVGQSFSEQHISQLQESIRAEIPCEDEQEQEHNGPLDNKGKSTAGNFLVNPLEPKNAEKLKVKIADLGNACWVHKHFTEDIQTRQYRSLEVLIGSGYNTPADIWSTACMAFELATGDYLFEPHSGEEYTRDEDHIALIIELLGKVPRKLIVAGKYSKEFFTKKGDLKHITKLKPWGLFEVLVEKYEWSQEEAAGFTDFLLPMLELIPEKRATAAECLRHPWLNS
WNK3(h) (human), sequence (Q9BYP7 1-434 limits assumed): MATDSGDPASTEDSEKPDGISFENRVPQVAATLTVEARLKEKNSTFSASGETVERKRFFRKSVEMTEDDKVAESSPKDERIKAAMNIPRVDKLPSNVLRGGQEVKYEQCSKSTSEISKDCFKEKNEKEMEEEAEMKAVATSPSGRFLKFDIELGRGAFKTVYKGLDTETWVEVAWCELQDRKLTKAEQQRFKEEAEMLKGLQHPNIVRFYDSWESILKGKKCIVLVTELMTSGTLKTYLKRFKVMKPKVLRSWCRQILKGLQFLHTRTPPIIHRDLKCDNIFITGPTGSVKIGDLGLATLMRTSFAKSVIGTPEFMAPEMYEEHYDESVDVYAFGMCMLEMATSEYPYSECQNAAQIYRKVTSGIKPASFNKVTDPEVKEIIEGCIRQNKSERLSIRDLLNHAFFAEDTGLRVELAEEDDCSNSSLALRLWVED
IRAK1(h) (human), sequence (P51617 194-712 limits assumed): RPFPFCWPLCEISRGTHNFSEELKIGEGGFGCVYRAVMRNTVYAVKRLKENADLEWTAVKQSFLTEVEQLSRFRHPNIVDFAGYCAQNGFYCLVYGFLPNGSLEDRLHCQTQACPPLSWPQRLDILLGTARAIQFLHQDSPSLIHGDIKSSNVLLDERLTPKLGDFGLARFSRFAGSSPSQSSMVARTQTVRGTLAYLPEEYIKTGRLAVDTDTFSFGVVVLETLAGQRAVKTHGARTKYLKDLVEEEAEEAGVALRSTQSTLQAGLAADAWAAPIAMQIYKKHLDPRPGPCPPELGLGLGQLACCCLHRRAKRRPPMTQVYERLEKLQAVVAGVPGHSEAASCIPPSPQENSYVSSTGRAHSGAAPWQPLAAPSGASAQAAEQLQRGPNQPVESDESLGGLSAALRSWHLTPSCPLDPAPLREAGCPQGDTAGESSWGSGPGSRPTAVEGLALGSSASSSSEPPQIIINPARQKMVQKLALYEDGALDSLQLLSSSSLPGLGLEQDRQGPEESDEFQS
MSK2(h) (human), sequence (O75676 whole entry): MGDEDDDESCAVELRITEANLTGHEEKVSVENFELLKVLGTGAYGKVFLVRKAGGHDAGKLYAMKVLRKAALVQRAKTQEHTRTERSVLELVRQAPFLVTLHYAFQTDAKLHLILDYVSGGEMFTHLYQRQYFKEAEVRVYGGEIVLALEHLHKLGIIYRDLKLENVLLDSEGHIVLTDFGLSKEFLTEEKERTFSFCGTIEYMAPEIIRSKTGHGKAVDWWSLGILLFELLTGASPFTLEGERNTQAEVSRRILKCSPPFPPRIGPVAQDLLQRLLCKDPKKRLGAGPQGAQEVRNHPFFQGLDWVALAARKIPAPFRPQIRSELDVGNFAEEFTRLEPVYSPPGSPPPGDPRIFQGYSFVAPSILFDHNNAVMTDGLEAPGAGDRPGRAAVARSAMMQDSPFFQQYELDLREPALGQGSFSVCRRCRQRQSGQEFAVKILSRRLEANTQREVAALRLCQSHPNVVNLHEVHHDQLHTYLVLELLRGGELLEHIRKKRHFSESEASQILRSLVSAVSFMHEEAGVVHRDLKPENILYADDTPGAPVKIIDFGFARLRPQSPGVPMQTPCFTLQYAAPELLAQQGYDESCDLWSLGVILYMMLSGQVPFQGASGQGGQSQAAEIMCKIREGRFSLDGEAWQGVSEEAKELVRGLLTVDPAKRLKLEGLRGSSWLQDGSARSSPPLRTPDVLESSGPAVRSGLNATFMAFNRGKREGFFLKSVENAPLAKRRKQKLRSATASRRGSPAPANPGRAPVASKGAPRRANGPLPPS
CSK(h) (human), sequence (P41240 whole entry): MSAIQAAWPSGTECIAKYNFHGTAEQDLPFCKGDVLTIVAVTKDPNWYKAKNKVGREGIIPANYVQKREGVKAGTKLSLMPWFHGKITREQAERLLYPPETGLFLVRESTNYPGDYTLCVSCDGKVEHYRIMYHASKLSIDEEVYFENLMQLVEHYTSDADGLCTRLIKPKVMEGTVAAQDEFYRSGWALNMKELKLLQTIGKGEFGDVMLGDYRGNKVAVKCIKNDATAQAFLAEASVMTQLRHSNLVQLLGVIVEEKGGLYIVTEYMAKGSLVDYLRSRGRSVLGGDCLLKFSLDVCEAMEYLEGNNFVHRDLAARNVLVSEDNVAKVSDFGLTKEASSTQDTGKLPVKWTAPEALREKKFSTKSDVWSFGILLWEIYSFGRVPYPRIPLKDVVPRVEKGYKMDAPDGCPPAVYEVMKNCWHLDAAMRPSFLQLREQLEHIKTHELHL
CHK2(I157T)(h) (human), sequence (O96017 5-543 I157T limits assumed): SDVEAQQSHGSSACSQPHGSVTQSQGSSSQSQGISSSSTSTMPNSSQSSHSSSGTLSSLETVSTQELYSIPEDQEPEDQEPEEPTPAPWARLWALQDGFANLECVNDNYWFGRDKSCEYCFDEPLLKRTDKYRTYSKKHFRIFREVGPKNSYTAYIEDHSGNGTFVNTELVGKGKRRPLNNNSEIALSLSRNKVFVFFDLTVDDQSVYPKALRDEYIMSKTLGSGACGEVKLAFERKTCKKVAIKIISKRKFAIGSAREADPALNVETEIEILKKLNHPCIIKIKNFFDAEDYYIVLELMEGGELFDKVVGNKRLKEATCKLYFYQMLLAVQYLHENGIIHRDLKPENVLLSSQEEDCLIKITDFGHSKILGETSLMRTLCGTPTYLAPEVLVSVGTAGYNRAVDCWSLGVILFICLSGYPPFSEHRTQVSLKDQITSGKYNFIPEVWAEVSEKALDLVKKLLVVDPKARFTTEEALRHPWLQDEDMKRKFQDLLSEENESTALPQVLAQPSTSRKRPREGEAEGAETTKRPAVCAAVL
NEK7(h) (human), sequence (Q8TDX7 whole entry): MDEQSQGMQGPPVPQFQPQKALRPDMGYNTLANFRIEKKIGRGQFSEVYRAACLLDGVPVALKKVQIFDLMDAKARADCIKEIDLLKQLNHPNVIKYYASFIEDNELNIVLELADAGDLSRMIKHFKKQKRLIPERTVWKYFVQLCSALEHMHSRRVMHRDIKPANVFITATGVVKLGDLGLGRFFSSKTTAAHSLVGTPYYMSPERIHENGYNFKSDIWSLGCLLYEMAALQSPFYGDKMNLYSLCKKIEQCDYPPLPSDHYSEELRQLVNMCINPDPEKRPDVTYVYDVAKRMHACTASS

For the substance MMI-0500 (peptide), the % activity, 100 µM with CHK2(I157T)(h) (human) was 3%; in the experiment with CLK3(h) (human), 76%; with CSK(h) (human), 2%; with CaMKIIγ(h) (human), 3%; in experiment [1], 45%; in the experiment with IKKβ(h) (human), 71%. Further, the % activity, 100 µM in the experiment with IRAK1(h) (human) is 5%; in the experiment with JAK3(h) (human) it was 95%; with MSK2(h) (human) it was 14%; with Met(M1268T)(h) (human), 239%; with Met(Y1248C)(h) (human) it was 73%; in the experiment with NEK11(h) (human), 2%. Besides, the % activity, 100 µM with NEK7(h) (human) came out at 89%; with SRPK1(h) (human), 80%; in the experiment with TAO2(h) (human), 15%; with ULK2(h) (human) it was 124%; with WNK3(h) (human), 9%.
